Test in all cases: ELISA, toxin domain coated on plate
(An ELISA detects its analyte on a solid surface through an enzyme-linked reagent.)

The target of experiment [1] is BoNT/A heavy-chain C-terminus (HCC) domain (UniProt P0DPI0 1093-1296).
Experiment [2] deals with BoNT/A heavy-chain N-terminus (HCN) domain (UniProt P0DPI0 871-1092).
Experiment [3] addresses BoNT/A light-chain heavy-chain N-terminus (LCHN) domain (UniProt P0DPI0 1-870).

Three molecules from patent US20120121581A1 (XOMA TECHNOLOGY, published 2012) can be followed below.

Sequence of BoNT/A heavy-chain C-terminus (HCC) domain (P0DPI0 1093-1296 limits assumed): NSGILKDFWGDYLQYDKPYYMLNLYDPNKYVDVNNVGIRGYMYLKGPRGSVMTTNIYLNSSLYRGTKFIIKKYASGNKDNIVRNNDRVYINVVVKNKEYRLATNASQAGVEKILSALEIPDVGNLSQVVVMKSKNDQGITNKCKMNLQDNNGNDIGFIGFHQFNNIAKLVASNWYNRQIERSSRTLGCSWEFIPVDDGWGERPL
Sequence of BoNT/A light-chain heavy-chain N-terminus (LCHN) domain (P0DPI0 1-870 limits assumed): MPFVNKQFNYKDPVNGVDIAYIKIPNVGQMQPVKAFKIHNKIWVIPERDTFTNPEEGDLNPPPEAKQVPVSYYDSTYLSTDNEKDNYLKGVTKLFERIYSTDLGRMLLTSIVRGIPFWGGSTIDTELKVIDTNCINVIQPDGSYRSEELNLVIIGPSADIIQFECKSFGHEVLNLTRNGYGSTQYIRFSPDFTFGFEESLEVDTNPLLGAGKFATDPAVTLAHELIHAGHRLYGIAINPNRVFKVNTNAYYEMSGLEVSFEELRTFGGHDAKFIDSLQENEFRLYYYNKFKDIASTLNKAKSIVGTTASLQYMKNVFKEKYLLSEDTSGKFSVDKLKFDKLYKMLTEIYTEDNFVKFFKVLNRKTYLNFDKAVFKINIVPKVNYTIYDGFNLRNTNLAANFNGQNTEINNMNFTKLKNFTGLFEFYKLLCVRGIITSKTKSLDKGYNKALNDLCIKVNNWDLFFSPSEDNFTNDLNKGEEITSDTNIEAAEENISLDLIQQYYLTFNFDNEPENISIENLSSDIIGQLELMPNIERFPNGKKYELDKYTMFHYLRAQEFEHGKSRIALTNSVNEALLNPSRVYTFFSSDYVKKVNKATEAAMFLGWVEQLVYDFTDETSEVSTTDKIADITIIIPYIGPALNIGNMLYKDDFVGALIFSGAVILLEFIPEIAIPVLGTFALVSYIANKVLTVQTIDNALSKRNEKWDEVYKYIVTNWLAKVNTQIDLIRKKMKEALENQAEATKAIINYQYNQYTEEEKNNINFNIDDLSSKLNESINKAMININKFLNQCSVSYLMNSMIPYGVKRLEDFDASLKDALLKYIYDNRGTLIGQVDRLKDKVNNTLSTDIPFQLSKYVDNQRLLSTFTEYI
Sequence of BoNT/A heavy-chain N-terminus (HCN) domain (P0DPI0 871-1092 limits assumed): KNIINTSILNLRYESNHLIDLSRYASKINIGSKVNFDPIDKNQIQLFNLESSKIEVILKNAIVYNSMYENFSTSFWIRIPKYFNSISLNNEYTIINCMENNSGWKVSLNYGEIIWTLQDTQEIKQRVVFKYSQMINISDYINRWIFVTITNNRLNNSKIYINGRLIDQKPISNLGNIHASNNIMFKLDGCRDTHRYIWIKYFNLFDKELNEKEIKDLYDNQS

B1: ABT03 (antibody, V domains shown)
VH: QVQLQQSGGGLVQPGGSLRLSCAASGFTFSNYAMTWVRQAPGKGLEWVSSISVGGSDTYYADSVKGRFTVSRDNSKNTLLLQMNSLRAEDTAVYYCAKVRTKYCSSLSCFAGFDSWGQGTRVTVSS
VL: DVVMTQSPSSLSASVGDRVTITCRASQSISSYLHWYQQKPGKAPTLLISDASSSQSGVPSRFSGSRFGTDFTLTISSLQPEDFATYYCQQSYSTRALTFGGGTKVEIK
Consider B1, for which the binding result in experiment [1] and in experiment [2] was “no binding” throughout.

B2: ABT01 (antibody, V domains shown)
VH: QVQLQQSGGGLVQPGGSLRLSCAASGFTFKYDYMYWIRQAPGKGLEWVATISDGGSYTYYSDSVEGRFTTSRDNSKNTLYLQMNSLRAEDTAIYYCSRYRYDDAMDYWGQGTLVTVSS
VL: EIVLTQSPATLSLSPGERATISCRASESVDSYGHSFMQWYQQKPGQAPRLLIYRASNLEPGIPARFSGSGSGTDFTLTISSLEPEDFAVYYCQQGNEVPFTFGQGTKVEIK
Turning to B2, the binding result in experiment [1] and in experiment [3] was “no binding” in each case.

B3: ABT02 (antibody, V domains shown)
VH: QVQLVQSGGGVVHPGRSLKLSCAGSGFTFSDYDMHWVRQAPGKGLEWVAVMWFDGTEKYSAESVKGRFTISRDNSKNTLFLQMNSLRADDTAVYYCAREPDWLLWGDRGALDVWGQGTTVTVSS
VL: DIVMTQSPSTLSASVGDRVTITCWASQSISSRLAWYQQKPGKAPKLLMYEATSLGSGVPSRFSGSGSGTEFTLTISSLQPDDFAAYYCQHYDTYPYTFGQGTKLEIK
On to B3, for which the binding result in experiment [2] and in experiment [3] was “no binding” in each case.
